Measured values reported in publication PMC7335907.

Target: small laccase from Streptomyces coelicolor (SLAC), T1 copper-depleted mutant C288S (SLAC-T1D) (Streptomyces coelicolor) (UniProt Q9XAL8)
Experiment: SEC-MALS

Q: Which stoichiometry N does the source give for “small laccase from Streptomyces coelicolor (SLAC), T1 copper-depleted mutant C288S (SLAC-T1D) (from UniProt Q9XAL8 1-343) (enzyme)” here?
A: 3
